Test results taken from the supplement of paper PMC10724198.
± gives the standard deviation of the averaged measurements.

How the values were obtained:
Saccharomyces cerevisiae [1] = assay: protein stability index of tFT-peptide fusion (C-terminal peptide) (PSI (0-1 scale)); higher = more stable (slower turnover)
Description: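 MPS profiling in S. cerevisiae of the tFT-X12 degron library: putative degron peptides plus stable controls, 12 aa, fused to the C-terminus of a sfGFP-mCherry timer. Cells are FACS-sorted into 8 mCherry/sfGFP bins and deep-sequenced. PSI runs from 0 (unstable) to 1 (stable). Backgrounds are wild type, das1Δ and doa10Δ at 30 °C, and wild type, das1Δ, cdc34-1 and cdc53-1 at 37 °C; 2-3 technical replicates each.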

Saccharomyces cerevisiae [2] = assay: as above; settings: genetic background: wild type; temperature: 30 C
[3] = genetic background: cdc34-1, temperature: 37 C
[4] = genetic background: cdc53-1, temperature: 37 C
[5] = genetic background: das1 deletion, temperature: 30 C
[6] = genetic background: das1 deletion, temperature: 37 C
[7] = genetic background: doa10 deletion, temperature: 30 C
[8] = genetic background: wild type, temperature: 30 C
[9] = genetic background: wild type, temperature: 37 C
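Further: PSI is a weighted mean of sequencing reads over stability bins, variants kept only with over 10 reads, mCherry proximal and sfGFP distal, peptide attached via GGGS linker.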

## TYKHIVRVNKCE
Saccharomyces cerevisiae [1]; [3]
  protein stability index: 0.594 ± 0.031
Saccharomyces cerevisiae [1]; [4]
  protein stability index: 0.684 ± 0.021
Saccharomyces cerevisiae [1]; [5]
  protein stability index: 0.627 ± 0.033
Saccharomyces cerevisiae [1]; [6]
  protein stability index: 0.727 ± 0.0073
Saccharomyces cerevisiae [1]; [7]
  protein stability index: 0.179 ± 0.0066
Saccharomyces cerevisiae [1]; [8]
  protein stability index: 0.184 ± 0.025
Saccharomyces cerevisiae [1]; [9]
  protein stability index: 0.286 ± 0.0033
Saccharomyces cerevisiae [2]
  protein stability index: 0.318 ± 0.04

## TYSVIPSLALLP
Saccharomyces cerevisiae [1]; [3]
  protein stability index: 0.664 ± 0.03
Saccharomyces cerevisiae [1]; [4]
  protein stability index: 0.727 ± 0.013
Saccharomyces cerevisiae [1]; [5]
  protein stability index: 0.643 ± 0.014
Saccharomyces cerevisiae [1]; [6]
  protein stability index: 0.7298 ± 0.0043
Saccharomyces cerevisiae [1]; [7]
  protein stability index: 0.648 ± 0.012
Saccharomyces cerevisiae [1]; [8]
  protein stability index: 0.652 ± 0.032
Saccharomyces cerevisiae [1]; [9]
  protein stability index: 0.704 ± 0.022
Saccharomyces cerevisiae [2]
  protein stability index: 0.224 ± 0.051

## VAGGFWCWGMVG
Saccharomyces cerevisiae [1]; [3]
  protein stability index: 0.718 ± 0.034
Saccharomyces cerevisiae [1]; [4]
  protein stability index: 0.782 ± 0.015
Saccharomyces cerevisiae [1]; [5]
  protein stability index: 0.663 ± 0.0093
Saccharomyces cerevisiae [1]; [6]
  protein stability index: 0.788 ± 0.013
Saccharomyces cerevisiae [1]; [7]
  protein stability index: 0.392 ± 0.016
Saccharomyces cerevisiae [1]; [8]
  protein stability index: 0.436 ± 0.024
Saccharomyces cerevisiae [1]; [9]
  protein stability index: 0.677 ± 0.024
Saccharomyces cerevisiae [2]
  protein stability index: 0.4642 ± 0.0023

## VARWVYALGLLC
Saccharomyces cerevisiae [1]; [3]
  protein stability index: 0.581 ± 0.035
Saccharomyces cerevisiae [1]; [4]
  protein stability index: 0.6488 ± 0.0027
Saccharomyces cerevisiae [1]; [5]
  protein stability index: 0.545 ± 0.028
Saccharomyces cerevisiae [1]; [6]
  protein stability index: 0.677 ± 0.025
Saccharomyces cerevisiae [1]; [7]
  protein stability index: 0.2 ± 0.0064
Saccharomyces cerevisiae [1]; [8]
  protein stability index: 0.221 ± 0.011
Saccharomyces cerevisiae [1]; [9]
  protein stability index: 0.377 ± 0.013
Saccharomyces cerevisiae [2]
  protein stability index: 0.312 ± 0.013

## VCCSILFSAFLV
Saccharomyces cerevisiae [1]; [3]
  protein stability index: 0.614 ± 0.088
Saccharomyces cerevisiae [1]; [4]
  protein stability index: 0.6552 ± 0.0051
Saccharomyces cerevisiae [1]; [5]
  protein stability index: 0.532 ± 0.019
Saccharomyces cerevisiae [1]; [6]
  protein stability index: 0.653 ± 0.001
Saccharomyces cerevisiae [1]; [7]
  protein stability index: 0.4 ± 0.024
Saccharomyces cerevisiae [1]; [8]
  protein stability index: 0.4 ± 0.012
Saccharomyces cerevisiae [1]; [9]
  protein stability index: 0.549 ± 0.013
Saccharomyces cerevisiae [2]
  protein stability index: 0.475 ± 0.041

## VCDPWVFIRCLV
Saccharomyces cerevisiae [1]; [3]
  protein stability index: 0.418 ± 0.015
Saccharomyces cerevisiae [1]; [4]
  protein stability index: 0.57354 ± 0.00022
Saccharomyces cerevisiae [1]; [5]
  protein stability index: 0.418 ± 0.031
Saccharomyces cerevisiae [1]; [6]
  protein stability index: 0.6025 ± 0.0034
Saccharomyces cerevisiae [1]; [7]
  protein stability index: 0.11 ± 0.0075
Saccharomyces cerevisiae [1]; [8]
  protein stability index: 0.118 ± 0.032
Saccharomyces cerevisiae [1]; [9]
  protein stability index: 0.104 ± 0.018
Saccharomyces cerevisiae [2]
  protein stability index: 0.234 ± 0.1

## VCLVAGVFFCLL
Saccharomyces cerevisiae [1]; [3]
  protein stability index: 0.5 ± 0.018
Saccharomyces cerevisiae [1]; [4]
  protein stability index: 0.587 ± 0.025
Saccharomyces cerevisiae [1]; [5]
  protein stability index: 0.44 ± 0.018
Saccharomyces cerevisiae [1]; [6]
  protein stability index: 0.638 ± 0.021
Saccharomyces cerevisiae [1]; [7]
  protein stability index: 0.422 ± 0.017
Saccharomyces cerevisiae [1]; [8]
  protein stability index: 0.449 ± 0.014
Saccharomyces cerevisiae [1]; [9]
  protein stability index: 0.575 ± 0.013
Saccharomyces cerevisiae [2]
  protein stability index: 0.629 ± 0.24

## VCVAVCFVMCGG
Saccharomyces cerevisiae [1]; [3]
  protein stability index: 0.36 ± 0.022
Saccharomyces cerevisiae [1]; [4]
  protein stability index: 0.457 ± 0.023
Saccharomyces cerevisiae [1]; [5]
  protein stability index: 0.324 ± 0.023
Saccharomyces cerevisiae [1]; [6]
  protein stability index: 0.499 ± 0.018
Saccharomyces cerevisiae [1]; [7]
  protein stability index: 0.276 ± 0.0083
Saccharomyces cerevisiae [1]; [8]
  protein stability index: 0.305 ± 0.0087
Saccharomyces cerevisiae [1]; [9]
  protein stability index: 0.464 ± 0.03
Saccharomyces cerevisiae [2]
  protein stability index: 0.3721 ± 0.0011

## VCVWVDILAFCS
Saccharomyces cerevisiae [1]; [3]
  protein stability index: 0.0795 ± 0.016
Saccharomyces cerevisiae [1]; [4]
  protein stability index: 0.245 ± 0.097
Saccharomyces cerevisiae [1]; [5]
  protein stability index: 0.183 ± 0.026
Saccharomyces cerevisiae [1]; [6]
  protein stability index: 0.278 ± 0.0048
Saccharomyces cerevisiae [1]; [7]
  protein stability index: 0.147 ± 0.019
Saccharomyces cerevisiae [1]; [8]
  protein stability index: 0.174 ± 0.019
Saccharomyces cerevisiae [1]; [9]
  protein stability index: 0.252 ± 0.018
Saccharomyces cerevisiae [2]
  protein stability index: 0.227 ± 0.05

## VDVWRWRGLRVG
Saccharomyces cerevisiae [1]; [3]
  protein stability index: 0.635 ± 0.029
Saccharomyces cerevisiae [1]; [4]
  protein stability index: 0.73743 ± 0.00065
Saccharomyces cerevisiae [1]; [5]
  protein stability index: 0.61 ± 0.013
Saccharomyces cerevisiae [1]; [6]
  protein stability index: 0.7528 ± 0.00093
Saccharomyces cerevisiae [1]; [7]
  protein stability index: 0.3592 ± 0.0023
Saccharomyces cerevisiae [1]; [8]
  protein stability index: 0.414 ± 0.031
Saccharomyces cerevisiae [1]; [9]
  protein stability index: 0.599 ± 0.0082
Saccharomyces cerevisiae [2]
  protein stability index: 0.555 ± 0.11

## VFAWSLYLRWAW
Saccharomyces cerevisiae [1]; [3]
  protein stability index: 0.2813 ± 0.0012
Saccharomyces cerevisiae [1]; [4]
  protein stability index: 0.287 ± 0.0065
Saccharomyces cerevisiae [1]; [5]
  protein stability index: 0.362 ± 0.025
Saccharomyces cerevisiae [1]; [6]
  protein stability index: 0.411 ± 0.011
Saccharomyces cerevisiae [1]; [7]
  protein stability index: 0.481 ± 0.02
Saccharomyces cerevisiae [1]; [8]
  protein stability index: 0.357 ± 0.017
Saccharomyces cerevisiae [1]; [9]
  protein stability index: 0.384 ± 0.0076
Saccharomyces cerevisiae [2]
  protein stability index: 0.489 ± 0.015

## VFFFNALFCFFC
Saccharomyces cerevisiae [1]; [3]
  protein stability index: 0.523 ± 0.039
Saccharomyces cerevisiae [1]; [4]
  protein stability index: 0.51 ± 0.0085
Saccharomyces cerevisiae [1]; [5]
  protein stability index: 0.535 ± 0.02
Saccharomyces cerevisiae [1]; [6]
  protein stability index: 0.562 ± 0.0091
Saccharomyces cerevisiae [1]; [7]
  protein stability index: 0.31138 ± 0.00022
Saccharomyces cerevisiae [1]; [8]
  protein stability index: 0.291 ± 0.011
Saccharomyces cerevisiae [1]; [9]
  protein stability index: 0.356 ± 0.0075
Saccharomyces cerevisiae [2]
  protein stability index: 0.35 ± 0.0075

## VFFSLSLILFPF
Saccharomyces cerevisiae [1]; [3]
  protein stability index: 0.431 ± 0.037
Saccharomyces cerevisiae [1]; [4]
  protein stability index: 0.5265 ± 0.0017
Saccharomyces cerevisiae [1]; [5]
  protein stability index: 0.412 ± 0.022
Saccharomyces cerevisiae [1]; [6]
  protein stability index: 0.525 ± 0.024
Saccharomyces cerevisiae [1]; [7]
  protein stability index: 0.3557 ± 0.00081
Saccharomyces cerevisiae [1]; [8]
  protein stability index: 0.402 ± 0.019
Saccharomyces cerevisiae [1]; [9]
  protein stability index: 0.4897 ± 0.0017
Saccharomyces cerevisiae [2]
  protein stability index: 0.419 ± 0.013

## VFFVLAVVGADA
Saccharomyces cerevisiae [1]; [3]
  protein stability index: 0.383 ± 0.044
Saccharomyces cerevisiae [1]; [4]
  protein stability index: 0.461 ± 0.024
Saccharomyces cerevisiae [1]; [5]
  protein stability index: 0.331 ± 0.033
Saccharomyces cerevisiae [1]; [6]
  protein stability index: 0.551 ± 0.018
Saccharomyces cerevisiae [1]; [7]
  protein stability index: 0.268 ± 0.0086
Saccharomyces cerevisiae [1]; [8]
  protein stability index: 0.306 ± 0.02
Saccharomyces cerevisiae [1]; [9]
  protein stability index: 0.467 ± 0.053
Saccharomyces cerevisiae [2]
  protein stability index: 0.397 ± 0.045

## VFLFSLLIVFFP
Saccharomyces cerevisiae [1]; [3]
  protein stability index: 0.213 ± 0.0089
Saccharomyces cerevisiae [1]; [4]
  protein stability index: 0.3 ± 0.0087
Saccharomyces cerevisiae [1]; [5]
  protein stability index: 0.226 ± 0.029
Saccharomyces cerevisiae [1]; [6]
  protein stability index: 0.385 ± 0.00051
Saccharomyces cerevisiae [1]; [7]
  protein stability index: 0.1951 ± 0.0019
Saccharomyces cerevisiae [1]; [8]
  protein stability index: 0.216 ± 0.028
Saccharomyces cerevisiae [1]; [9]
  protein stability index: 0.3338 ± 0.0025
Saccharomyces cerevisiae [2]
  protein stability index: 0.219 ± 0.075

## VFLLLSLSVFFE
Saccharomyces cerevisiae [1]; [3]
  protein stability index: 0.0371 ± 0.0054
Saccharomyces cerevisiae [1]; [4]
  protein stability index: 0.0844 ± 0.0086
Saccharomyces cerevisiae [1]; [5]
  protein stability index: 0.138 ± 0.0083
Saccharomyces cerevisiae [1]; [6]
  protein stability index: 0.225 ± 0.0081
Saccharomyces cerevisiae [1]; [7]
  protein stability index: 0.109 ± 0.014
Saccharomyces cerevisiae [1]; [8]
  protein stability index: 0.128 ± 0.043
Saccharomyces cerevisiae [1]; [9]
  protein stability index: 0.142 ± 0.018
Saccharomyces cerevisiae [2]
  protein stability index: 0.1721 ± 0.0014

## VFSFGLLFQVCR
Saccharomyces cerevisiae [1]; [3]
  protein stability index: 0.598 ± 0.04
Saccharomyces cerevisiae [1]; [4]
  protein stability index: 0.625 ± 0.025
Saccharomyces cerevisiae [1]; [5]
  protein stability index: 0.435 ± 0.022
Saccharomyces cerevisiae [1]; [6]
  protein stability index: 0.6144 ± 0.0034
Saccharomyces cerevisiae [1]; [7]
  protein stability index: 0.4081 ± 0.0038
Saccharomyces cerevisiae [1]; [8]
  protein stability index: 0.452 ± 0.025
Saccharomyces cerevisiae [1]; [9]
  protein stability index: 0.631 ± 0.053
Saccharomyces cerevisiae [2]
  protein stability index: 0.502 ± 0.019

## VFSGVTTILVRT
Saccharomyces cerevisiae [1]; [3]
  protein stability index: 0.578 ± 0.05
Saccharomyces cerevisiae [1]; [4]
  protein stability index: 0.517 ± 0.026
Saccharomyces cerevisiae [1]; [5]
  protein stability index: 0.37 ± 0.035
Saccharomyces cerevisiae [1]; [6]
  protein stability index: 0.576 ± 0.022
Saccharomyces cerevisiae [1]; [7]
  protein stability index: 0.346 ± 0.0089
Saccharomyces cerevisiae [1]; [8]
  protein stability index: 0.392 ± 0.018
Saccharomyces cerevisiae [1]; [9]
  protein stability index: 0.538 ± 0.0096
Saccharomyces cerevisiae [2]
  protein stability index: 0.539 ± 0.11

## VFSLFLVLNYPF
Saccharomyces cerevisiae [1]; [3]
  protein stability index: 0.302 ± 0.046
Saccharomyces cerevisiae [1]; [4]
  protein stability index: 0.296 ± 0.043
Saccharomyces cerevisiae [1]; [5]
  protein stability index: 0.373 ± 0.021
Saccharomyces cerevisiae [1]; [6]
  protein stability index: 0.495 ± 0.01
Saccharomyces cerevisiae [1]; [7]
  protein stability index: 0.466 ± 0.021
Saccharomyces cerevisiae [1]; [8]
  protein stability index: 0.362 ± 0.012
Saccharomyces cerevisiae [1]; [9]
  protein stability index: 0.432 ± 0.025
Saccharomyces cerevisiae [2]
  protein stability index: 0.446 ± 0.037
